# According to patent US20260092121A1 (TALEM THERAPEUTICS, published 2026):
# Assays:
# human TrkB-ECD-GST = target: T1, human TrkB-ECD-GST (human, UniProt Q16620 32-430); assay: ELISA
# T1 construct: in-house fusion, HEK293; also called hTrkB-ECD-GST; human TrkB-GST; not shown: glutathione S-transferase (GST) fusion part
# mouse TrkB-ECD-GST = target: T2, mouse TrkB-ECD-GST (mouse, UniProt P15209 32-429); assay: ELISA
# T2 construct: extracellular domain; in-house fusion, HEK293; also called mTrkB-ECD-GST; mTrkB (ELISA); not shown: glutathione S-transferase (GST) fusion part
Binder,binding result (human TrkB-ECD-GST),binding result (mouse TrkB-ECD-GST)
"anti-TrkB clone 2E08 (antibody, V domains shown, full-length IgG) VH: QVQLVQSGAEVKKPGESLKISCTGSGYRFSHYWIGWVRQMPGKGLEWMGMIYPDDSDTRYSPSFQGQVTISADKSINTAYLQWTSLRASDSAIYYCATGVISGTDYWGQGTLVTVSS VL: SYVLTQPPSVSVSPGQTARITCSGDKLGDKYVSWYQLKPGQSPVVVIYQDNKRPSGIPERFSASNSENTGTLTISGTQAMDEADYYCQTWDSGTGVFGTGTKLTVL",no binding (tested: up to 10 µg/mL),no binding (tested: up to 10 µg/mL)
"anti-TrkB clone 3D06 (antibody, V domains shown, full-length IgG) VH: EVQLVQSGAEVKKPGESLKISCQGSGYTFTNYWIAWVRQMPGKGLEWMGIIYPGDSDTRYSPSFQGQVTISADKSISTAYLQWSSLKASDTAMYYCAIGYDYGAFDIWGQGTMVTVSS VL: QPVLTQPPSASGTPGQRVSISCSGSNSNIGSNSVYWYQQLPGTAPKLLIYRNNQRPSGVPDRFSGSKSGTSASLAISGLRSEDEADYYCAAWDDSLSGYVFGTGTQLTVL",no binding (tested: up to 10 µg/mL),no binding (tested: up to 10 µg/mL)
"anti-TrkB clone 3B06 (antibody, V domains shown, full-length IgG) VH: EVQLVQSGAEVKEPGASVKVSCKASGYTFTNYAMHWVRQAPGQRLEWMGWINPNTGGTNYAQKFQGRVTMTRDTSISTAYMELSSLRSDDTAVYYCARGGGGLVFWGQGTLVTVSS VL: DIVMTQTPLSLPVTLGQPASISCRSSQSLVDRDGNTYLNWFRQRPGQSPRRLIYKVSNRDSGVPGTFSGSGSGTDFTLKISRVEADDVGVYFCMQATHWPPTFGQGTKVEI",no binding (tested: up to 10 µg/mL),no binding (tested: up to 10 µg/mL)

# Next, values leading:
binding result (human TrkB-ECD-GST),binding result (mouse TrkB-ECD-GST),Binder
no binding (tested: up to 10 µg/mL),no binding (tested: up to 10 µg/mL),"anti-TrkB clone 2H05 (antibody, V domains shown, full-length IgG) VH: EVQLVESGAEVKKPGESLRISCKGSGYSFTNNWINWVRQMPGKGLEWMGRIDPDDSYTNYSPSFQGHVIFSADKSSNTVYLQWSSLEASDTAMYYCARRAQGGGGYDYWGQGTLVTVSS VL: QSVLTQPSSVSGAPGQRVTISCTGSSSNIGAGYGVHWYQQLPGTAPKLLIYDDINRPSGVPDRFSGSKSGTSASLAITGLRAEDEADYYCQSYDTSRGGLYVFGSGTKLTVL"
no binding (tested: up to 10 µg/mL),no binding (tested: up to 10 µg/mL),"anti-TrkB clone 4D01 (antibody, V domains shown, full-length IgG) VH: EVQLVQSGAEVKKPGESLKISCKGSRYSFTSYWIGWVRQMPGKGLEWMGIIYPGDSDTRYSPSFQGQVTISADKSISTAYLQWSSLKASDTAMYYCARLKDGAFDIWGQGTMVTVSS VL: QAVLTQPPSASGTPGQRVTISCSGSSSNIEGNYVHWYQQLPGAAPKVLIYRNNQRPSGVPDRFSGSKSGTSASLAISGLRSEDETDYFCAAWDDSLNGYVFGAGTKVTVL"
no binding (tested: up to 10 µg/mL),no binding (tested: up to 10 µg/mL),"anti-TrkB clone 3D03 (antibody, V domains shown, full-length IgG) VH: EVQLVQSGAEVKKPGESLKISCKGSGYSFTSYWIGWVRQMPGKGLEWMGIIYPGDSDTRYSPSFQGQVTISADKSISTAYLQWSSLKASDTAMYYCARLGGSLPIDYWGQGTLVTVSS VL: QSVLTQPPSVSVSPGQTASITCSGDKLGDKYVSWYQQKPGQSPVLVIYQDSKRPSGIPERFSGSNSGSTATLTISGTQALDEADYYCQAWDNNIGVFGGGTKLTVL"
